Legend:
Assay in all cases: EMSA
[1] = target: NF90ΔC381 (DZF);NF45ΔN28 (DZF) (mouse;mouse, UniProt Q9Z1X4;Q9CXY6 1-380;29-390, |)
NF90 dsRBDs = target: T1, NF90 dsRBDs (mouse, UniProt Q9Z1X4 380-590)
T1 sequence: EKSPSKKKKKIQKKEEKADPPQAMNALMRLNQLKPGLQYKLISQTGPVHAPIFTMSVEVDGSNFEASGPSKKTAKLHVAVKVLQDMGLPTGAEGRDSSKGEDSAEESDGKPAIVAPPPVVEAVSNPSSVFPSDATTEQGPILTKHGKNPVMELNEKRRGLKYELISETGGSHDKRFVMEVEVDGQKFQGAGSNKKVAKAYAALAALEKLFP

[2] = target: NF90ΔC591 (DZF + both dsRBDs);NF45 (partner in long complex) (mouse;mouse, UniProt Q9Z1X4;Q9CXY6 1-590;29-390, |)
Chain of NF90ΔC591 (DZF + both dsRBDs);NF45 (partner in long complex) (Q9CXY6 29-390, stated change not applied, one chain of several): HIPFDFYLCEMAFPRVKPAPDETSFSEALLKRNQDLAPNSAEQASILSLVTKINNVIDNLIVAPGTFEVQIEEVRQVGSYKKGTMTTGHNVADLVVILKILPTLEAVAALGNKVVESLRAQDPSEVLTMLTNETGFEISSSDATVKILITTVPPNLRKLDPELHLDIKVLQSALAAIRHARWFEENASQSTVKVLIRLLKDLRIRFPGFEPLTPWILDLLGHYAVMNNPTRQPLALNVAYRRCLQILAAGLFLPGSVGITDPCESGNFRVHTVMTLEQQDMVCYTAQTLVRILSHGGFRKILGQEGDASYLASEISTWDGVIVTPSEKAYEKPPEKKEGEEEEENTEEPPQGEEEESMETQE

B1: ss17-A10/Css17-U10 dsRNA (dsRNA)
RNA 1: CCCCACCACCAUCACUUAAAAAAAAAA
RNA 2: UUUUUUUUUUAAGUGAUGGUGGUGGGG
binding result [1]: no binding
binding result (NF90 dsRBDs): binds
binding result [2]: binds

CCCCACCACCAUCACUUAAAAAAAAAA (ssRNA) [ss17-A10]
binding result [1]: no binding

Source: publication PMC3467086
